Measurements reported in IntAct's records for PubMed 19141287.

B1: Mitotic checkpoint serine/threonine-protein kinase BUB1 (Homo sapiens), O43683 (parent)
chain: MDTPENVLQMLEAHMQSYKGNDPLGEWERYIQWVEENFPENKEYLITLLEHLMKEFLDKKKYHNDPRFISYCLKFAEYNSDLHQFFEFLYNHGIGTLSSPLYIAWAGHLEAQGELQHASAVLQRGIQNQAEPREFLQQQYRLFQTRLTETHLPAQARTSEPLHNVQVLNQMITSKSNPGNNMACISKNQGSELSGVISSACDKESNMERRVITISKSEYSVHSSLASKVDVEQVVMYCKEKLIRGESEFSFEELRAQKYNQRRKHEQWVNEDRHYMKRKEANAFEEQLLKQKMDELHKKLHQVVETSHEDLPASQERSEVNPARMGPSVGSQQELRAPCLPVTYQQTPVNMEKNPREAPPVVPPLANAISAALVSPATSQSIAPPVPLKAQTVTDSMFAVASKDAGCVNKSTHEFKPQSGAEIKEGCETHKVANTSSFHTTPNTSLGMVQATPSKVQPSPTVHTKEALGFIMNMFQAPTLPDISDDKDEWQSLDQNEDAFEAQFQKNVRSSGAWGVNKIISSLSSAFHVFEDGNKENYGLPQPKNKPTGARTFGERSVSRLPSKPKEEVPHAEEFLDDSTVWGIRCNKTLAPSPKSPGDFTSAAQLASTPFHKLPVESVHILEDKENVVAKQCTQATLDSCEENMVVPSRDGKFSPIQEKSPKQALSSHMYSASLLRLSQPAAGGVLTCEAELGVEACRLTDTDAAIAEDPPDAIAGLQAEWMQMSSLGTVDAPNFIVGNPWDDKLIFKLLSGLSKPVSSYPNTFEWQCKLPAIKPKTEFQLGSKLVYVHHLLGEGAFAQVYEATQGDLNDAKNKQKFVLKVQKPANPWEFYIGTQLMERLKPSMQHMFMKFYSAHLFQNGSVLVGELYSYGTLLNAINLYKNTPEKVMPQGLVISFAMRMLYMIEQVHDCEIIHGDIKPDNFILGNGFLEQDDEDDLSAGLALIDLGQSIDMKLFPKGTIFTAKCETSGFQCVEMLSNKPWNYQIDYFGVAATVYCMLFGTYMKVKNEGGECKPEGLFRRLPHLDMWNEFFHVMLNIPDCHHLPSLDLLRQKLKKVFQQHYTNKIRALRNRLIVLLLECKRSRK

Variants of: B1
Conditions: with KNL1, Q8NG31-2
Chain of KNL1, Q8NG31-2 (Q8NG31 other isoform, or with tags, fused parts or gaps): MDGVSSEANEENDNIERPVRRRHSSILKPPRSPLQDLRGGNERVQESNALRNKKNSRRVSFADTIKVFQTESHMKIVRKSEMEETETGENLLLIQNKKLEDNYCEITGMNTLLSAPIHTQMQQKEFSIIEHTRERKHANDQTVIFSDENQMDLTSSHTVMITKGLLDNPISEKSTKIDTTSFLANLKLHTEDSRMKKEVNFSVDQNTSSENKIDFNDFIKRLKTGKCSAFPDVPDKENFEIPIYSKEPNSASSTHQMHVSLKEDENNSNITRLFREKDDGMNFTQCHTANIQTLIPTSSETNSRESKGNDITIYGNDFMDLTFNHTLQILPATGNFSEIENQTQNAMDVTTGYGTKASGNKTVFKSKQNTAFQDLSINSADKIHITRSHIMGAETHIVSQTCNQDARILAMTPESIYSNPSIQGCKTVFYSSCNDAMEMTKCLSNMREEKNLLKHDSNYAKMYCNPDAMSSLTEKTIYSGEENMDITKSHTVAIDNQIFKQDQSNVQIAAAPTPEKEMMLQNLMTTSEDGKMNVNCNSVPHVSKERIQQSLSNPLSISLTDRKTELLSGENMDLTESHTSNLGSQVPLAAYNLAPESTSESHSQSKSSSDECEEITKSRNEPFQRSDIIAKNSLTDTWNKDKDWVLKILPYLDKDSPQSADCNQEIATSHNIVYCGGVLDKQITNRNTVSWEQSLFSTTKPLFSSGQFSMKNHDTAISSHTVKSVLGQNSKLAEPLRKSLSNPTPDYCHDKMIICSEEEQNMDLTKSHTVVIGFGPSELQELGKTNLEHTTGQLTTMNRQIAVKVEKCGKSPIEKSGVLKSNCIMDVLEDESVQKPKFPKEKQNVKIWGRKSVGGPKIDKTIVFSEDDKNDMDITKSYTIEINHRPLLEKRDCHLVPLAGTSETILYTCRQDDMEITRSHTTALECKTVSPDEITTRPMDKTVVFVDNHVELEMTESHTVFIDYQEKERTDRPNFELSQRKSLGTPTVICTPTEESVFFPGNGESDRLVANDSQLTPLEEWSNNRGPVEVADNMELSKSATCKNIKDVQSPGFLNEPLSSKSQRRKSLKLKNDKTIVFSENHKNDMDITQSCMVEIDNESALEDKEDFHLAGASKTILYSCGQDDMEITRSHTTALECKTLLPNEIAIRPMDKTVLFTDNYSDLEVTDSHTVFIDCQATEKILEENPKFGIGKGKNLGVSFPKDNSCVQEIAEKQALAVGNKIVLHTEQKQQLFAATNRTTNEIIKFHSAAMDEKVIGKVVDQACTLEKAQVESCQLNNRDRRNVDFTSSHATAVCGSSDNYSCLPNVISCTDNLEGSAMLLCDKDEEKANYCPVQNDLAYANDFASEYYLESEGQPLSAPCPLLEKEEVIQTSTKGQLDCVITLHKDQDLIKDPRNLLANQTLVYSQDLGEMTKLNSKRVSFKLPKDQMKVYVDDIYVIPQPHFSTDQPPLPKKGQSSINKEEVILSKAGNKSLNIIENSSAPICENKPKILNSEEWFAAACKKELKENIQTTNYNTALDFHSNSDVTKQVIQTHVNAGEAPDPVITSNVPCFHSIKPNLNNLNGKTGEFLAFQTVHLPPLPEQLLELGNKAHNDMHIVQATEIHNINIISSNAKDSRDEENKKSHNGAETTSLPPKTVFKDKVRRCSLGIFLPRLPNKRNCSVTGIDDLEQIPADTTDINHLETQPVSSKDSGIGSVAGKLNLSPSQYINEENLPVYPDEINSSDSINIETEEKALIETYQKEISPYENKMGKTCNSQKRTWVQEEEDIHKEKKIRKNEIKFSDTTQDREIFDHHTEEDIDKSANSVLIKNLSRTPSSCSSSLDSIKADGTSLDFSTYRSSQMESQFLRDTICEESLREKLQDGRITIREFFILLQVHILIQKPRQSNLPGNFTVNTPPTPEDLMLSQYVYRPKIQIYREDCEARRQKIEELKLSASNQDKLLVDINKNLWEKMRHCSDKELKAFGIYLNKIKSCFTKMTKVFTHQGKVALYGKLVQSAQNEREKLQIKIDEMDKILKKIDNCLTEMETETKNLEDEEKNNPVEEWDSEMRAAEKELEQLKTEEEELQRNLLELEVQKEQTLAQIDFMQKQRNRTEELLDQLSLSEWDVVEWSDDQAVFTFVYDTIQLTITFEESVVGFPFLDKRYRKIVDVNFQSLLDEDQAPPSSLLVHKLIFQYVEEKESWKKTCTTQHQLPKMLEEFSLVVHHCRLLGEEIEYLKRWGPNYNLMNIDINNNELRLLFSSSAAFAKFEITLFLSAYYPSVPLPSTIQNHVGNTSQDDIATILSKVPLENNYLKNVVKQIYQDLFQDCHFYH

Effect of a mutation on the interaction, disrupting interaction:
L45G;L49G
G93A;G95A
D65G
G93A;I94G;G95L
G20S;N21Q;D22A
